± gives the standard deviation of the averaged measurements.
System: Saccharomyces cerevisiae
Experiment: protein stability index of tFT-peptide fusion (C-terminal peptide) (PSI (0-1 scale)); higher = more stable (slower turnover)
Conditions: genetic background: das1 deletion; temperature: 30 C
Description: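 MPS profiling in S. cerevisiae of the yeast C-terminome library: the last 12 aa of each annotated ORF are fused to the C-terminus of a sfGFP-mCherry timer, after a GGGS linker. Cells are FACS-sorted into 8 mCherry/sfGFP bins and deep-sequenced. PSI runs from 0 (unstable) to 1 (stable); wild type and das1Δ backgrounds, two technical replicates each.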

Sequence	protein stability index
LLAKQLLLLLLR [YER079C-A C-terminal 12 aa]	0.33 ± 0.018
LLEDEDRTYNYT [KCH1 C-terminal 12 aa]	0.6892 ± 0.0059
LLHYQSWHFSIY [YJL007C C-terminal 12 aa]	0.707 ± 0.035
LLLAGRKLSLDK [ARK1 C-terminal 12 aa]	0.694 ± 0.016
LLLQFPPYLPHD [LAG2 C-terminal 12 aa]	0.75 ± 0.019
LLPLIYLINKSL [YMR013C-A C-terminal 12 aa]	0.622 ± 0.014
LLRKHVFPSVPK [VFA1 C-terminal 12 aa]	0.732 ± 0.026
LLSAILDPSKSK [MED11 C-terminal 12 aa]	0.709 ± 0.021
LLSLPSSTLTKS [YIL068W-A C-terminal 12 aa]	0.703 ± 0.025
LLTYFRKHVKDT [SCC2 C-terminal 12 aa]	0.714 ± 0.043
LLYPVKSESSTV [PDR16 C-terminal 12 aa]	0.68 ± 0.013
LMILGNFMPILN [ERT1 C-terminal 12 aa]	0.6909 ± 0.0037
LPFQKLKHLIKK [MRX11 C-terminal 12 aa]	0.707 ± 0.031
LPLYYVYQCDMI [YDR094W C-terminal 12 aa]	0.6642 ± 0.0046
LPVSDSRCYYIL [YML031C-A C-terminal 12 aa]	0.6921 ± 0.0021
LPYRMLIRMYPV [YEL014C C-terminal 12 aa]	0.5232 ± 0.0025
LQTMSFLMNHLI [YJL032W C-terminal 12 aa]	0.6597 ± 0.0011

Sequence	protein stability index
LRLKGNAKAPGA [CLC1 C-terminal 12 aa]	0.70418 ± 0.00015
LRTTSSMEKKLN [ALG3 C-terminal 12 aa]	0.7064 ± 0.00072
LSADGIYTAVPN [PAU17 C-terminal 12 aa]	0.695 ± 0.018
LSAETGIRGEGE [YIL100W C-terminal 12 aa]	0.6849 ± 0.0034
LSKDGIYTAVPN [PAU23 C-terminal 12 aa]	0.6917 ± 0.0018
LSKKDYSIDSIE [TPO3 C-terminal 12 aa]	0.726 ± 0.011
LSKMYIGWLPFW [MEC1 C-terminal 12 aa]	0.7227 ± 0.0057
LSLTLVSIIKTA [COG2 C-terminal 12 aa]	0.618 ± 0.025
LSNQNSPLFLYH [YHR175W-A C-terminal 12 aa]	0.7053 ± 0.0058
LSPSYSCRYHGR [YPL152W-A C-terminal 12 aa]	0.7126 ± 0.0044
LSVIYMGWSPFY [TEL1 C-terminal 12 aa]	0.716 ± 0.018
LSVTLGEGKYHH [CSG2 C-terminal 12 aa]	0.685 ± 0.03
LTVLCVILGYVL [UTR2 C-terminal 12 aa]	0.5761 ± 0.00066
LTWSLAYSGAFS [ACF2 C-terminal 12 aa]	0.7217 ± 0.0012
LVIDQITQLRQQ [COG1 C-terminal 12 aa]	0.6966 ± 0.0015
LVIKRRGFEINT [PET122 C-terminal 12 aa]	0.66 ± 0.015

Same assay, conditions: genetic background: wild type; temperature: 30 C

Sequence	protein stability index
LLAKQLLLLLLR [YER079C-A C-terminal 12 aa]	0.342 ± 0.0063
LLEDEDRTYNYT [KCH1 C-terminal 12 aa]	0.718 ± 0.069
LLHYQSWHFSIY [YJL007C C-terminal 12 aa]	0.407 ± 0.026
LLLAGRKLSLDK [ARK1 C-terminal 12 aa]	0.715 ± 0.023
LLLQFPPYLPHD [LAG2 C-terminal 12 aa]	0.7442 ± 0.0048
LLPLIYLINKSL [YMR013C-A C-terminal 12 aa]	0.199 ± 0.022
LLRKHVFPSVPK [VFA1 C-terminal 12 aa]	0.738 ± 0.031
LLSAILDPSKSK [MED11 C-terminal 12 aa]	0.699 ± 0.046
LLSLPSSTLTKS [YIL068W-A C-terminal 12 aa]	0.702 ± 0.0086
LLTYFRKHVKDT [SCC2 C-terminal 12 aa]	0.572 ± 0.054
LLYPVKSESSTV [PDR16 C-terminal 12 aa]	0.676 ± 0.01
LMILGNFMPILN [ERT1 C-terminal 12 aa]	0.5655 ± 0.0049
LPFQKLKHLIKK [MRX11 C-terminal 12 aa]	0.706 ± 0.046
LPLYYVYQCDMI [YDR094W C-terminal 12 aa]	0.643 ± 0.052
LPVSDSRCYYIL [YML031C-A C-terminal 12 aa]	0.343 ± 0.013
LPYRMLIRMYPV [YEL014C C-terminal 12 aa]	0.5345 ± 0.0047
LQTMSFLMNHLI [YJL032W C-terminal 12 aa]	0.23 ± 0.042

Sequence	protein stability index
LRLKGNAKAPGA [CLC1 C-terminal 12 aa]	0.729 ± 0.012
LRTTSSMEKKLN [ALG3 C-terminal 12 aa]	0.205 ± 0.0049
LSADGIYTAVPN [PAU17 C-terminal 12 aa]	0.702 ± 0.011
LSAETGIRGEGE [YIL100W C-terminal 12 aa]	0.71 ± 0.029
LSKDGIYTAVPN [PAU23 C-terminal 12 aa]	0.702 ± 0.0078
LSKKDYSIDSIE [TPO3 C-terminal 12 aa]	0.6981 ± 0.0023
LSKMYIGWLPFW [MEC1 C-terminal 12 aa]	0.6826 ± 0.002
LSLTLVSIIKTA [COG2 C-terminal 12 aa]	0.193 ± 0.0064
LSNQNSPLFLYH [YHR175W-A C-terminal 12 aa]	0.705 ± 0.015
LSPSYSCRYHGR [YPL152W-A C-terminal 12 aa]	0.6832 ± 0.004
LSVIYMGWSPFY [TEL1 C-terminal 12 aa]	0.773 ± 0.032
LSVTLGEGKYHH [CSG2 C-terminal 12 aa]	0.686 ± 0.034
LTVLCVILGYVL [UTR2 C-terminal 12 aa]	0.645 ± 0.048
LTWSLAYSGAFS [ACF2 C-terminal 12 aa]	0.686 ± 0.013
LVIDQITQLRQQ [COG1 C-terminal 12 aa]	0.6158 ± 0.0047
LVIKRRGFEINT [PET122 C-terminal 12 aa]	0.721 ± 0.043

From the supplement of paper PMC10724198
